# Patent US20240261333A1 (published 2024)
# T1: NUFIP2 (human, UniProt Q7Z417 1-695)
# T1 construct: also called NP_065823.1
# T1 sequence (looked up): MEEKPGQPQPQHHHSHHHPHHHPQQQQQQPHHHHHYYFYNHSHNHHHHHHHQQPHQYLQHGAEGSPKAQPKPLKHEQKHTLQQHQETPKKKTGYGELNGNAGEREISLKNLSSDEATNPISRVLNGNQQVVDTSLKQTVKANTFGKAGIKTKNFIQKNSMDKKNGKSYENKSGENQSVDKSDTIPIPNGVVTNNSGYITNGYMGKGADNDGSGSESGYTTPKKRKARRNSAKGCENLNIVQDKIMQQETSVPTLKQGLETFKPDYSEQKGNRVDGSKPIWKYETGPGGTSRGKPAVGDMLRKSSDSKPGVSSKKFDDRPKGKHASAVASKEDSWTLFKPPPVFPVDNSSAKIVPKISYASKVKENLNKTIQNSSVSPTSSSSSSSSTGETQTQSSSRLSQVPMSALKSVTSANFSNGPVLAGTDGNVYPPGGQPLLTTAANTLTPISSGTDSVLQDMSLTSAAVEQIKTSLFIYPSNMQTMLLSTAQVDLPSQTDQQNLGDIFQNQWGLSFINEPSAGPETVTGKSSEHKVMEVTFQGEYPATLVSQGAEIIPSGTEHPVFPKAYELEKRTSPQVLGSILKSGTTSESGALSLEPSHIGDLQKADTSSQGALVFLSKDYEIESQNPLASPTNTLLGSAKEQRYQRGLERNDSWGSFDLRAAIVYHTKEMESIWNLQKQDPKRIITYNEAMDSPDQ
# T2: CSE1L (human, UniProt P55060-4 1-915, limits assumed)
# T2 construct: also called NP_001243064.1 (+2)
# T2 sequence (looked up): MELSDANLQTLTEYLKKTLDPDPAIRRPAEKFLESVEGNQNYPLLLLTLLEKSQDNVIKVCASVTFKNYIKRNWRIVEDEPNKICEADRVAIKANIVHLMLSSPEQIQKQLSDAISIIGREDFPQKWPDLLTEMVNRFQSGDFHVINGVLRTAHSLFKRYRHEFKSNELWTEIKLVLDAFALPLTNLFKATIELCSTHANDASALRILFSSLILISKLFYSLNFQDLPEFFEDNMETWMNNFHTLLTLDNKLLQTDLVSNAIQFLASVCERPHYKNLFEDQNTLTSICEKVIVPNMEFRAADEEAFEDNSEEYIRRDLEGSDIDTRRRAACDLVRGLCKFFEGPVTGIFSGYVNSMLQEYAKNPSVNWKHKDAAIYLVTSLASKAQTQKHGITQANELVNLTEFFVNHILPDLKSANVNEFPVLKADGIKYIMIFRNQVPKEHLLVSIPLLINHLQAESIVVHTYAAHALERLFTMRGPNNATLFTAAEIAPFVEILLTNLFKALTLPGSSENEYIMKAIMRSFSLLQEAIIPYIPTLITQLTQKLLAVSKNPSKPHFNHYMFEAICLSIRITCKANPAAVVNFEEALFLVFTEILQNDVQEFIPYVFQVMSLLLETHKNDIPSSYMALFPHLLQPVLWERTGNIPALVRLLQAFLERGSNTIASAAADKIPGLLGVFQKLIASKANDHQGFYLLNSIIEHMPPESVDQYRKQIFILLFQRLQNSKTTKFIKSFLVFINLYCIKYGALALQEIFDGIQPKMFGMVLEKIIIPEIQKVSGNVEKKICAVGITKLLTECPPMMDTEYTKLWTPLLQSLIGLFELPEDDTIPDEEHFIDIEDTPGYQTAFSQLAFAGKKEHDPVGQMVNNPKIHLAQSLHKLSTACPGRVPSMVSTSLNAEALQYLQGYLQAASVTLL
# B1: N-terminal FLAG tagged B3GNT2 (enzyme, human, UniProt Q9NY97 1-397, looked up)
# chain: MSVGRRRIKLLGILMMANVFIYFIMEVSKSSSQEKNGKGEVIIPKEKFWKISTPPEAYWNREQEKLNRQYNPILSMLTNQTGEAGRLSNISHLNYCEPDLRVTSVVTGFNNLPDRFKDFLLYLRCRNYSLLIDQPDKCAKKPFLLLAIKSLTPHFARRQAIRESWGQESNAGNQTVVRVFLLGQTPPEDNHPDLSDMLKFESEKHQDILMWNYRDTFFNLSLKEVLFLRWVSTSCPDTEFVFKGDDDVFVNTHHILNYLNSLSKTKAKDLFIGDVIHNAGPHRDKKLKYYIPEVVYSGLYPPYAGGGGFLYSGHLALRLYHITDQVHLYPIDDVYTGMCLQKLGLVPEKHKGFRTFDIEEKNKNNICSYVDLMLVHSRKPQEMIDIWSQLQSAHLKC
# notes: Overexpressed in cells and pulled down from the lysate with mouse anti-FLAG antibody; also called N-FLAG B3GNT2; N-term FLAG; not shown: N-terminal FLAG tag
# Columns and labels:
# NUFIP2 = target: T1, NUFIP2; assay: co-IP, anti-FLAG, lysate of cells with N-FLAG B3GNT2; mass spectrometry
# Procedure: (§1) Cells were plated in 10-cm cell culture dishes and grown to 60-80% confluency. For each condition, two biological replicates were harvested for co-IP. Cells were washed with PBS and 4 mL of lysis buffer (20 mM HEPES, 1% Triton X-100, 150 mM NaCl, 1 mM EDTA, and 10% glycerol) containing protease inhibitor cocktail was added. Cells were scraped and lysate was incubated at 4° C. under rotary agitation for 1 h. Lysate was centrifuged at 14,000×g for 10 min at 4° C. Supernatant was transferred to a new tube and an aliquot was taken as the input. […] For Western blots, 10 μg/mL Chicken Anti-FLAG (Aves labs ET-DY100) and IgY control (R&D Systems AB-101-C) antibodies were biotinylated (Thermo Fisher Scientific 90407) and added to the respective conditions. Lysates with antibodies were incubated at 4° C. under rotary agitation overnight. For each mL of lysate, 50 μL of Pierce Protein A/G Magnetic Beads (Mass spectrometry; Thermo Fisher Scientific 88803) or Pierce Streptavidin Magnetic Beads (Western blot; Thermo Fisher Scientific 88817) was washed twice with lysis buffer. Lysates with antibodies were added to the beads and incubated at 4° C. under rotary agitation for 4 h. Beads were washed with lysis buffer 3 times and resuspended in lysis buffer for storage.
# (§2) Magnetic beads were resuspended in 100 mM Tris pH 7.8, reduced, alkylated and digested with trypsin at 37° ° C. overnight. This solution was subjected to solid phase extraction to concentrate the peptides and remove unwanted reagents followed by injection onto a Shimadzu HPLC with fraction collector. Eight fractions were collected and after concentration were injected on a Waters NanoAcquity HPLC equipped with a self-packed Aeris 3 μm C18 analytical column 0.075 mm by 20 cm, (Phenomenex). Peptides were eluted using standard reverse-phase gradients. The effluent from the column was analyzed using a Thermo Orbitrap Elite mass spectrometer (nanospray configuration) operated in a data dependent manner for 54 minutes. The resulting fragmentation spectra were correlated against the known database using Proteome Discover 1.4 (Thermo Fisher Scientific).
# CSE1L = target: T2, CSE1L; assay: as above
# Procedure: as §1, §2
binder,measurement,setting,value
B1,co-IP mass spectrometry count,NUFIP2,3
same,co-IP mass spectrometry count,CSE1L,0
